Experimental data taken from paper PMC6107761, “Preferential Binding of Mg^2+ Over Ca^2+ to CIB2 Triggers an Allosteric Switch Impaired in Usher Syndrome Type 1J” (Frontiers in Molecular Neuroscience, 2018).

B1: human wild type calcium and integrin binding protein 2 (CIB2) (natural protein, UniProt O75838-1 1-187, looked up)
chain: MGNKQTIFTEEQLDNYQDCTFFNKKDILKLHSRFYELAPNLVPMDYRKSPIVHVPMSLIIQMPELRENPFKERIVAAFSEDGEGNLTFNDFVDMFSVLCESAPRELKANYAFKIYDFNTDNFICKEDLELTLARLTKSELDEEEVVLVCDKVIEEADLDGDGKLGFADFEDMIAKAPDFLSTFHIRI
notes: 21.6 kDa; complete cDNA; Non-covalent dimer by SEC, Ferguson plots and DLS under reducing conditions; Tag removed by TEV protease; also called WT CIB2; WT; source: E. coli BL21 DE3, purified (His-trap, TEV cleavage, second His-trap flow-through); not shown: 6xHis, N-terminal, cleaved
B2: peptide of the membrane proximal segment of the cytoplasmic domain of α7B integrin, residues 1101-1116 (peptide)
peptide: Ac-LLLWKMGFFKRAKHPE-NH2
notes: Integrin α7B, membrane proximal segment of the cytoplasmic domain, residues 1101-1116 of Uniprot entry Q13683; source: synthetic peptide (GenScript)
B3: human E64D CIB2 (natural protein, UniProt O75838-1 1-187, looked up)
chain: MGNKQTIFTEEQLDNYQDCTFFNKKDILKLHSRFYELAPNLVPMDYRKSPIVHVPMSLIIQMPDLRENPFKERIVAAFSEDGEGNLTFNDFVDMFSVLCESAPRELKANYAFKIYDFNTDNFICKEDLELTLARLTKSELDEEEVVLVCDKVIEEADLDGDGKLGFADFEDMIAKAPDFLSTFHIRI
notes: point mutation E64D made by site-directed mutagenesis on the complete cDNA; variant associated with Usher syndrome type 1J / non-syndromic hearing loss; After elution treated as the WT protein (TEV cleavage of the His tag); Dimer by SEC and Ferguson plots; also called p.E64D; USH1J-related variant; not shown: 6xHis, N-terminal, cleaved

Key:
[1] = molecular target: B2; assay: other fluorescence titration; 4 μM α7B_M peptide titrated with increasing CIB2; blue shift of the peptide's Trp emission peak (excitation 295 nm); 20 mM Hepes, 150 mM KCl, 1 mM DTT pH 7.5, 37°C, 1 mM Mg2+ and 1 mM Ca2+; apparent Kd; conditions: both partners purified
[2] = molecular target: B2; assay: other fluorescence titration; Trp emission spectra of 4 μM peptide alone and with fixed concentrations of WT CIB2 (8 μM for α7B_M; 2, 4 and 8 μM for Scrb); 20 mM Hepes, 150 mM KCl, 1 mM DTT pH 7.5, 37°C, 1 mM Mg2+ and 1 mM Ca2+; conditions: both partners purified
[3] = molecular target: B1; assay: other fluorescence titration; 4 μM α7B_M peptide titrated with increasing CIB2; blue shift of the peptide's Trp emission peak (excitation 295 nm); 20 mM Hepes, 150 mM KCl, 1 mM DTT pH 7.5, 37°C, 1 mM Mg2+ and 1 mM Ca2+; apparent Kd; conditions: both partners purified
human E64D CIB2 = molecular target: B3; assay: as above; conditions: both partners purified
[4] = molecular target: the molecule itself; assay: SEC; analytical SEC, Superose 12 10/300GL; 20 mM Tris pH 7.5, 150 mM KCl, 1 mM DTT with 3 mM EGTA or 2 mM EGTA + 3 mM Mg2+ or 3 mM Mg2+ + 2 mM Ca2+; WT 100 μM, E64D 70 μM; MW from a calibration plot

Binder | stoichiometry N [1] | fold increase in the maximal fluorescence emission of the peptide [2] | Kd [3] | Kd (human E64D CIB2) | stoichiometry N [4]
B1 | 2 CIB2 chains per peptide | 1.7 fold |  |  | 
B2 |  |  | 4.99 µM | 3.1 µM | 
B3 | 2 CIB2 chains per peptide |  |  |  | 2
